Measurements published in patent US20190010196A1 (GOVERNING COUNCIL OF THE UNIVERSITY OF TORONTO, published 2019).
Square brackets hold non-standard residues; d marks the D form. Ends that are not written are not given here. * marks the point of attachment. Biotin = O=C1N[C@H]2[C@H](CS[C@H]2CCCCC(=O)*)N1; Lys(Me2) = CN(C)CCCC[C@H](N)C(=O)O

Target: T1, MBP-53BP1-Tudor protein (residues 1484-1603) (UniProt Q12888 1484-1603)
T1 construct: range 1484-1603; also called MBP-Tudor fusion of 53BP1; not shown: MBP fusion partner
Experiment: pulldown competition on MBP-53BP1-Tudor; competitor GST-UbvG08; immunoblot

T1 sequence (Q12888 1484-1603): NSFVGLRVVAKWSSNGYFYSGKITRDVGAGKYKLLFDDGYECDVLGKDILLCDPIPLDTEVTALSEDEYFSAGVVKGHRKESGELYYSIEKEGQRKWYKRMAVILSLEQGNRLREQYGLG

- IC50: 100 to 300 µM
B1: biotin-labeled peptide derived from histone H4K20me2 (peptide)
peptide: {Biotin-Mini‑PEG}-YGKGGAKRHR[Lys(Me2)]VLRD
notes: Synthetic peptide (BioBasic Canada Inc.); also called H4K20me2 peptide
